Residue numbers refer to the chain shown, from its start. Where two headings read alike, the source gives them in different places.
B1: 20E6_H0.2aL1_hIgG1 VH_R50A (antibody, V domains shown)
VH: EVQLVQSGAEVKKPGASVKVSCKASGYTFTSYWMHWVRQAPGQGLEWMGAIDPQSGGIKYAQKFQGRATLTVDTSTSTAYMELSRLRSDDTAVYYCARWDYGGYFDVWGQGTLVTVSS
VL: DIQMTQSPSSLSASVGDRVTITCRASQDITNYLNWYQQKPGKAVKLLIYYTSRLHSGVPSRFSGSGSGTDYTLTISSLQPEDFATYFCQQGDTLPWTFGQGTKLEIKR
B2: 20E6_H0.2aL1_hIgG1 VH_W99A (antibody, V domains shown)
VH: B1 VH with A50R, W99A
VL: B1 VL
B3: 20E6_H0.2aL1_hIgG1 VH_Y101A (antibody, V domains shown)
VH: B1 VH with A50R, Y101A
VL: B1 VL
B4: 20E6_H0.2aL1_hIgG1 VH_G102A (antibody, V domains shown)
VH: B1 VH with A50R, G102A
VL: B1 VL
B5: 20E6_H0.2aL1_hIgG1 VH_G103A (antibody, V domains shown)
VH: B1 VH with A50R, G103A
VL: B1 VL
B6: 20E6_H0.2aL1_hIgG1 VH_Y104A (antibody, V domains shown)
VH: B1 VH with A50R, Y104A
VL: B1 VL
B7: 20E6_H0.2aL1_hIgG1 VH_F105A (antibody, V domains shown)
VH: B1 VH with A50R, F105A
VL: B1 VL
B8: 20E6_H0.2aL1_hIgG1 VL_A25G (antibody, V domains shown)
VH: B1 VH with A50R
VL: B1 VL with A25G
B9: 20E6_H0.2aL1_hIgG1 VL_Q27A (antibody, V domains shown)
VH: B1 VH with A50R
VL: B1 VL with Q27A
B10: 20E6_H0.2aL1_hIgG1 VL_D28A (antibody, V domains shown)
VH: B1 VH with A50R
VL: B1 VL with D28A
B11: 20E6_H0.2aL1_hIgG1 VL_Y32A (antibody, V domains shown)
VH: B1 VH with A50R
VL: B1 VL with Y32A
B12: 20E6_H0.2aL1_hIgG1 VL_L33A (antibody, V domains shown)
VH: B1 VH with A50R
VL: B1 VL with L33A
B13: 20E6_H0.2aL1_hIgG1 VL_N34A (antibody, V domains shown)
VH: B1 VH with A50R
VL: B1 VL with N34A
B14: 20E6_H0.2aL1_hIgG1 VL_Y50A (antibody, V domains shown)
VH: B1 VH with A50R
VL: B1 VL with Y50A
B15: 20E6_H0.2aL1_hIgG1 VL_Q90A (antibody, V domains shown)
VH: B1 VH with A50R
VL: B1 VL with Q90A
B16: 20E6_H0.2aL1_hIgG1 VL_G91A (antibody, V domains shown)
VH: B1 VH with A50R
VL: B1 VL with G91A
B17: 20E6_H0.2aL1_hIgG1 VL_D92A (antibody, V domains shown)
VH: B1 VH with A50R
VL: B1 VL with D92A
B18: 20E6_H0.2aL1_hIgG1 VL_L94A (antibody, V domains shown)
VH: B1 VH with A50R
VL: B1 VL with L94A
B19: 20E6_H0.2aL1_hIgG1 VL_P95A (antibody, V domains shown)
VH: B1 VH with A50R
VL: B1 VL with P95A
B20: 20E6_H0.2aL1_hIgG1 VL_W96A (antibody, V domains shown)
VH: B1 VH with A50R
VL: B1 VL with W96A
B21: 20E6_H0.2aL1_hIgG1 VL_T97A (antibody, V domains shown)
VH: B1 VH with A50R
VL: B1 VL with T97A
B22: humanized 20E6 F(ab′) binding protein (Fab, V domains shown)
VH: B1 VH with A50R
VL: B1 VL
B23: 28G11_(hyb) (antibody, mouse IgG2b, kappa, V domains shown)
VH: EVKLVESGGGLVQPGGSLSLSCAASGFTFTDYYMSWVRQPPGKALEWLGFIRNKPNGYTTEYSASVKGRFTISRDNSQSILYLQMNVLRAEDSATYYCARYTGGGYFDYWGQGTTLTVSS
VL: DIQMTQTTSSLSASLGDRLTISCRASQDISNYLNWYQQKPDGTVKLLIYYTSRLHSGVPSRFSGSGSGTDYSLTISNLEQADIATYFCQQGDTLPWTFGGGTKLEIKR

Tests used:
[1] = molecular target: biotinylated human LAP-TGFβ1 (Example 14) (human) (UniProt P01137); assay: BLI, antigen on tip, CHO supernatant; ratio to wild type
[2] = molecular target: fusion protein of a human IgG1 Fc domain and human LAP-TGFβ1 (human) (UniProt P01137); assay: SPR (Biacore T200), antigen-Fc captured, 1:1 model
[3] = molecular target: fusion protein of a human IgG1 Fc domain and rat LAP-TGFβ1 (human; rat) (UniProt P17246); assay: SPR (Biacore T200), antigen-Fc captured, 1:1 model
[4] = molecular target: fusion protein of a human IgG1 Fc domain and mouse LAP-TGFβ1 (human; mouse) (UniProt P04202); assay: SPR (Biacore T200), antigen-Fc captured, 1:1 model
[5] = molecular target: fusion protein of a human IgG1 Fc domain and human LAP-TGFβ1 (human) (UniProt P01137); assay: SPR (Biacore T200), antigen-Fc captured, 1:1 model; remark: listed apart in the source
[6] = molecular target: fusion protein of a human IgG1 Fc domain and cynomolgus monkey LAP-TGFβ1 (human; cynomolgus monkey); assay: SPR (Biacore T200), antigen-Fc captured, 1:1 model
[7] = molecular target: human-chicken LAP-TGFβ1 chimera #2 on HT1080 cells (human/chicken chimera); assay: flow cytometry, transduced HT1080 cells
[8] = molecular target: human-chicken LAP-TGFβ1 chimera #1 on HT1080 cells (human/chicken chimera); assay: flow cytometry, transduced HT1080 cells
Sequence of human-chicken LAP-TGFβ1 chimera #1 on HT1080 cells (human/chicken chimera) (chain, as listed by the source mutant limits assumed): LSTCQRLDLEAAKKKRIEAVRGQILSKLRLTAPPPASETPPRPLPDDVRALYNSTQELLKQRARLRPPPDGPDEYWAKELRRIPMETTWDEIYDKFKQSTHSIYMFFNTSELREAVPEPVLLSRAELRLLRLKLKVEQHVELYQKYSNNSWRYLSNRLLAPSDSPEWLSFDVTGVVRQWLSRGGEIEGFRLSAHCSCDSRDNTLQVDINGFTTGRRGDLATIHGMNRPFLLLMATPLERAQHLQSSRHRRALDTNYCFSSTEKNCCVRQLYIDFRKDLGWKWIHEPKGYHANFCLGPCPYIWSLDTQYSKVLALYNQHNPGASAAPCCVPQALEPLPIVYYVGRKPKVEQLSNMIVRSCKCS

Sequence of biotinylated human LAP-TGFβ1 (Example 14) (human) (P01137 30-390 limits assumed): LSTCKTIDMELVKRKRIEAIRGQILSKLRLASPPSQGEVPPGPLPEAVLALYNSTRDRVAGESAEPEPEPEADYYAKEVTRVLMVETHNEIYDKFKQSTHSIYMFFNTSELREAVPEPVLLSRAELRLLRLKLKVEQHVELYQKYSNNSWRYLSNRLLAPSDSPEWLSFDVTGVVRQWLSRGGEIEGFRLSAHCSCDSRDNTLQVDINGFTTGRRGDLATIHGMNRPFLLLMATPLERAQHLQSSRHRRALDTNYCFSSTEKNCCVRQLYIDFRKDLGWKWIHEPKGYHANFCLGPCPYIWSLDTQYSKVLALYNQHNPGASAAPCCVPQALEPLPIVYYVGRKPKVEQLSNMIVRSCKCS
Sequence of fusion protein of a human IgG1 Fc domain and human LAP-TGFβ1 (human) (P01137 30-390 limits assumed): as above
Sequence of fusion protein of a human IgG1 Fc domain and rat LAP-TGFβ1 (human; rat) (P17246 30-390 limits assumed): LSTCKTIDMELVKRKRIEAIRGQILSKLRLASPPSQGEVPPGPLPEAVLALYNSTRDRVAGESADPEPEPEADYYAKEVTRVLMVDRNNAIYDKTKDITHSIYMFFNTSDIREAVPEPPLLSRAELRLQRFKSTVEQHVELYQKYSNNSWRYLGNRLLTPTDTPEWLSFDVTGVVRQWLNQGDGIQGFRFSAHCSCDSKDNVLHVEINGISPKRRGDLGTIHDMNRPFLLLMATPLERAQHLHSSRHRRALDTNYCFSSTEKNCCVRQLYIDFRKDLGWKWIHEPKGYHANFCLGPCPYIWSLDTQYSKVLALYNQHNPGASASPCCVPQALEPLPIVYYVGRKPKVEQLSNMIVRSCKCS
Sequence of fusion protein of a human IgG1 Fc domain and mouse LAP-TGFβ1 (human; mouse) (P04202 30-390 limits assumed): as the sequence (P17246 30-390 limits assumed) above, with D93E, T99S, F131L, T134S, V202K counted along it
Sequence of human-chicken LAP-TGFβ1 chimera #2 on HT1080 cells (human/chicken chimera) (chain, as listed by the source mutant limits assumed): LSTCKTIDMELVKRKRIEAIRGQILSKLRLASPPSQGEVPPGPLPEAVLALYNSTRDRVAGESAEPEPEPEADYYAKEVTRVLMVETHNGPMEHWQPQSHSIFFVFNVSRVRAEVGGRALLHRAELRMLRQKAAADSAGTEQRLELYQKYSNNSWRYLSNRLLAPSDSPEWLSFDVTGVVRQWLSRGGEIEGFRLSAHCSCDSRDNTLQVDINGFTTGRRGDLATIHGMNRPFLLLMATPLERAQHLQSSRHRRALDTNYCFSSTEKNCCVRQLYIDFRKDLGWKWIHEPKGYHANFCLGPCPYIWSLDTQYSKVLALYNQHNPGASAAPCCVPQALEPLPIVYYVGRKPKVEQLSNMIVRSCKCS

KD,WT/KD,Ala [1]	also measured	Binder
0	–	B1
0	–	B2
0	–	B3
0	–	B4
0	–	B5
0	–	B6
0	–	B7
0.09	–	B8
0.03	–	B9
0	–	B10
0	–	B11
0.08	–	B12
0.07	–	B13
0	–	B14
0	–	B15
0	–	B16
0	–	B17
0	–	B18
0	–	B19
0	–	B20
0.01	–	B21
–	Kd [2]: 40.8 nM; koff [2]: 0.08 s⁻¹; kon [2]: 1.96e+06 M⁻¹ s⁻¹; Kd [3]: 59.4 nM; koff [3]: 0.106 s⁻¹; kon [3]: 1.79e+06 M⁻¹ s⁻¹; Kd [4]: 48.3 nM; koff [4]: 0.079 s⁻¹; kon [4]: 1.64e+06 M⁻¹ s⁻¹; Kd [5]: 49.5 nM; koff [5]: 0.0939 s⁻¹; kon [5]: 1.91e+06 M⁻¹ s⁻¹; Kd [6]: 60.3 nM; koff [6]: 0.095 s⁻¹; kon [6]: 1.58e+06 M⁻¹ s⁻¹	B22
–	% GFP+/APC+ cells [7]: 0.2%; % GFP+/APC+ cells [8]: 0.2%	B23

— patent publication US20220017612A1
